Source: patent publication US20160257732A1 (published 2016)
“And” between values parts separate entries of the source, which are not always exact repeats. Identical values can stand only once. Like-named read-outs stand apart in the source and are kept apart here.

Experiments:
Experiment in all cases: cell-based or functional assay
[1] = target: HA of ca A/Beijing/262/95 (H1N1) (influenza A virus)
[2] = target: HA of ca A/Texas/36/91 (H1N1) (influenza A virus)
[3] = target: HA of ca A/Sydney/5/97 (H3N2) (influenza A virus)
[4] = target: T1, HA of ca A/chicken/Hong Kong/G9/97 (H9N2) (influenza A virus)
[5] = target: HA of ca A/Vietnam/1203/04 (H5N1) (influenza A virus)
[6] = target: HA of A/Wisconsin/67/05 (H3N2) (influenza A virus)
[7] = target: HA of ca A/Netherlands/219/03 (H7N7) (influenza A virus)
[8] = target: HA of A/Hong Kong/8/68 (H3N2) (influenza A virus)
[9] = target: HA of A/Fort Monmouth/1/47 (H1N1) (influenza A virus)
[10] = target: HA of ca A/teal/Hong Kong/W312/97 (H6N1) (influenza A virus)
[11] = target: HA of ca A/swine/Missouri/06 (H2N3) (influenza A virus)
[12] = target: HA of A/Kawasaki/9/86 (H1N1) (influenza A virus)
[13] = target: HA of ca A/New Caledonia/20/99 (H1N1) (influenza A virus)
[14] = target: T2, HA of ca A/Brit. Columbia/CN-6/04 (H7N3-LP) (influenza A virus)
[15] = target: HA of ca A/Panama/2007/99 (H3N2) (influenza A virus)
[16] = target: HA of A/Wyoming/03/03 (H3N2) (influenza A virus)
[17] = target: HA of ca A/Hong Kong/213/03 (H5N1) (influenza A virus)
[18] = target: HA of A/New Jersey/8/76 (H1N1) (influenza A virus)
[19] = target: HA of ca A/Perth/16/09 (H3N2) (influenza A virus)
[20] = target: HA of A/Victoria/3/75 (H3N2) (influenza A virus)
[21] = target: HA of swine-origin A/Minnesota/11/2010 H3N2 virus (influenza A virus)
[22] = target: HA of ca A/Beijing/262/95 (H1N1) (influenza A virus); remark: listed apart in the source
[23] = target: HA of ca A/Texas/36/91 (H1N1) (influenza A virus); remark: listed apart in the source
[24] = target: HA of ca A/Sydney/5/97 (H3N2) (influenza A virus); remark: listed apart in the source
[25] = target: T1, HA of ca A/chicken/Hong Kong/G9/97 …; remark: listed apart in the source
[26] = target: HA of ca A/Vietnam/1203/04 (H5N1) (influenza A virus); remark: listed apart in the source
[27] = target: HA of ca A/Netherlands/219/03 (H7N7) (influenza A virus); remark: listed apart in the source
[28] = target: HA of A/Hong Kong/8/68 (H3N2) (influenza A virus); remark: listed apart in the source
[29] = target: HA of A/Fort Monmouth/1/47 (H1N1) (influenza A virus); remark: listed apart in the source
[30] = target: HA of ca A/teal/Hong Kong/W312/97 (H6N1) (influenza A virus); remark: listed apart in the source
[31] = target: HA of ca A/swine/Missouri/06 (H2N3) (influenza A virus); remark: listed apart in the source
[32] = target: HA of A/Kawasaki/9/86 (H1N1) (influenza A virus); remark: listed apart in the source
[33] = target: HA of ca A/New Caledonia/20/99 (H1N1) (influenza A virus); remark: listed apart in the source
[34] = target: T2, HA of ca A/Brit. Columbia/CN-6/04 …; remark: listed apart in the source
[35] = target: HA of ca A/mallard/Alberta/89/85 (H6N2) (influenza A virus)
[36] = target: HA of A/Victoria/361/11 (H3N2) (influenza A virus)
[37] = target: HA of ca A/Anhui/1/13 (H7N9) (influenza A virus)
[38] = target: HA of ca A/Hong Kong/213/03 (H5N1) (influenza A virus); remark: listed apart in the source
[39] = target: HA of A/New Jersey/8/76 (H1N1) (influenza A virus); remark: listed apart in the source
[40] = target: HA of ca A/Perth/16/09 (H3N2) (influenza A virus); remark: listed apart in the source
[41] = target: HA of ca A/Japan/57 (H2N2) (influenza A virus)
[42] = target: HA of A/Victoria/3/75 (H3N2) (influenza A virus); remark: listed apart in the source
HA of virus H1-BS10 = target: HA of virus H1-BS10
[43] = target: HA of A/Wisconsin/67/05 (H3N2) (influenza A virus); remark: listed apart in the source
[44] = target: HA of ca A/Panama/2007/99 (H3N2) (influenza A virus); remark: listed apart in the source

B1: Antibody 6 (antibody, V domains shown)
VH: QVQLQQSGPGLVKPSQTLSLTCAISGDRVSSNSAVWNWIRQSPSRGLEWLGRTYYRSKWYYDYAESVKSRIVIDPDTSKNQVSLQLNSVTPEDSAIYYCARGGHITEFGLNIDAYDIWGQGAMVTVSS
VL: DIQMTQSPSSLSASVGDRVTISCRAQSLSSYLHWYQQKPGQPPKLLIYAATTLQSGVPSRFSGSGSGTDFTLTISTFQAEDVATYYCQQSRTFGQGTKVEIK
[1]
  Neutralization IC50, H1-BJ95: 20.9 µg/mL
[2]
  Neutralization IC50, H1-TX91: 2.2 µg/mL
[3]
  Neutralization IC50, H3-Syd97: 6.54 µg/mL
[4]
  Neutralization IC50, H9-HK97: 16.5 µg/mL
[5]
  Neutralization IC50, H5-VM04: 8.87 µg/mL
[6]
  Neutralization IC50, H3-WI05: 6.76 µg/mL
[7]
  Neutralization IC50, H7-NLD03: > 50 µg/mL
[8]
  Neutralization IC50, H3-HK68: 2.04 µg/mL
[9]
  Neutralization IC50, H1-FM47: 3.04 µg/mL
[10]
  Neutralization IC50, H6-HK97: 3.23 µg/mL
[11]
  Neutralization IC50, H2-MO06: 2.9 µg/mL
[12]
  Neutralization IC50, H1-Kaw86: 3.51 µg/mL
[13]
  Neutralization IC50, H1-Ncal99: 3 µg/mL
[14]
  Neutralization IC50, H7-BC04: > 50 µg/mL
[15]
  Neutralization IC50, H3-Pa99: 25.8 µg/mL
[16]
  Neutralization IC50, H3-Wy03: 4.7 µg/mL
[17]
  Neutralization IC50, H5-HK03: 10.4 µg/mL
[18]
  Neutralization IC50, H1-NJ76: 2.6 µg/mL
[19]
  Neutralization IC50, H3-Perth09: 5.03 µg/mL
[20]
  Neutralization IC50, H3-Vic75: 1.09 µg/mL

B2: Antibody 8 (antibody, V domains shown)
VH: QVQLQQSGPGLVKPSQTLSLTCVISGDTVSSNRATWNWMRQSPLRGLEWLGRTYYRSKWYNDYAVSVKSRVVINPDTSKNQVSLQLNTVTPDDSGVYFCARGGHITVFGVNIDAFDIWGLGTKVTVSS
VL: DIQMTQSPSSLSASVGDRVTISCRASQRLNSYLHWYQQTPGQAPKLLIYATSTLQSGVSPRFSGSGSGTDFTLTISSLQPEDVATYYCQLSRTFGHGTKVEIK
[1]
  Neutralization IC50, H1-BJ95: 10.6 µg/mL
[2]
  Neutralization IC50, H1-TX91: 0.7 µg/mL
[3]
  Neutralization IC50, H3-Syd97: > 50 µg/mL
[4]
  Neutralization IC50, H9-HK97: 26.4 µg/mL
[5]
  Neutralization IC50, H5-VM04: 3.9 µg/mL
[6]
  Neutralization IC50, H3-WI05: > 50 µg/mL
[7]
  Neutralization IC50, H7-NLD03: 12.8 µg/mL
[8]
  Neutralization IC50, H3-HK68: 2.82 µg/mL
[9]
  Neutralization IC50, H1-FM47: 1.37 µg/mL
[10]
  Neutralization IC50, H6-HK97: 2.97 µg/mL
[11]
  Neutralization IC50, H2-MO06: 2.62 µg/mL
[12]
  Neutralization IC50, H1-Kaw86: 2.11 µg/mL
[13]
  Neutralization IC50, H1-Ncal99: 2.06 µg/mL
[14]
  Neutralization IC50, H7-BC04: 14.7 µg/mL
[15]
  Neutralization IC50, H3-Pa99: > 50 µg/mL
[16]
  Neutralization IC50, H3-Wy03: > 50 µg/mL
[17]
  Neutralization IC50, H5-HK03: 1.82 µg/mL
[18]
  Neutralization IC50, H1-NJ76: 2.26 µg/mL
[19]
  Neutralization IC50, H3-Perth09: > 50 µg/mL
[20]
  Neutralization IC50, H3-Vic75: 3.83 µg/mL

B3: Antibody 12 (antibody, V domains shown)
VH: QVQLQQSGPGLVKPSQTLSLTCAISGDSVSSYNAVWNWIRQSPSRGLEWLGRTYYRSGWYNDYAESVKSRITINPDTSKNQFSLQLNSVTPEDTAVYYCARSGHITVFGVNVDAFDMWGQGTMVTVSS
VL: DIQMTQSPSSLSASVGDRVTITCRTSQSLSSYTHWYQQKPGKAPKLLIYAASSRGSGVPSRFSGSGSGTDFTLTISSLQPEDFATYYCQQSRTFGQGTKVEIK
[21]
  Neutralizing activity IC50, swine-origin A/Minnesota/11/2010: 1.1 µg/mL and 1.2 µg/mL
[22]
  Neutralization IC50, H1-BJ95: 1.31 µg/mL
[23]
  Neutralization IC50, H1-TX91: 0.12 µg/mL
[24]
  Neutralization IC50, H3-Syd97: 1.56 µg/mL
[25]
  Neutralization IC50, H9-HK97: 0.31 µg/mL
[26]
  Neutralization IC50, H5-VM04: 0.31 µg/mL
[27]
  Neutralization IC50, H7-NLD03: 0.83 µg/mL
[28]
  Neutralization IC50, H3-HK68: 0.42 µg/mL
[29]
  Neutralization IC50, H1-FM47: 0.28 µg/mL
[30]
  Neutralization IC50, H6-HK97: 0.45 µg/mL
[31]
  Neutralization IC50, H2-MO06: 0.53 µg/mL
[32]
  Neutralization IC50, H1-Kaw86: 0.28 µg/mL
[33]
  Neutralization IC50, H1-Ncal99: 0.61 µg/mL
[34]
  Neutralization IC50, H7-BC04: 0.78 µg/mL
[35]
  Neutralization IC50, H6-AB85: 0.32 µg/mL
[36]
  Neutralization IC50, H3-VC11: 0.83 µg/mL
[37]
  Neutralization IC50, H7-ANU13: 2.56 µg/mL
[38]
  Neutralization IC50, H5-HK03: 0.17 µg/mL
[39]
  Neutralization IC50, H1-NJ76: 0.12 µg/mL
[40]
  Neutralization IC50, H3-Perth09: 0.25 µg/mL
[41]
  Neutralization IC50, H2-JP57: 0.35 µg/mL
[42]
  Neutralization IC50, H3-Vic75: 0.32 µg/mL
HA of virus H1-BS10
  Neutralization IC50, H1-BS10: 1.25 µg/mL

B4: Antibody 14 (antibody, V domains shown)
VH: QVQLQQSGPGLVKPSQTLSLTCAISGDSVSSNNAVWNWIRQSPSRGLEWLGRTYYRSKWYNDYAESVKSRITINPDTSKNQFSLQLNSVTPEDTAVYYCARSGHITVFGVNVDAFDMWGQGTTVTVSS
VL: DIQMTQSPSSLSASVGDRVTITCRTSQSLSSYTHWYQQKPGKAPKLLIYAASSRLSGVPSRFSGSGSGTDFTLTISSLQPEDFATYYCQQSRTFGQGTKVEIK
[21]
  Neutralizing activity IC50, swine-origin A/Minnesota/11/2010: 1.4 µg/mL and 2.3 µg/mL
[22]
  Neutralization IC50, H1-BJ95: 2.09 µg/mL
[23]
  Neutralization IC50, H1-TX91: 0.09 µg/mL
[24]
  Neutralization IC50, H3-Syd97: 1.82 µg/mL
[25]
  Neutralization IC50, H9-HK97: 0.44 µg/mL
[26]
  Neutralization IC50, H5-VM04: 0.33 µg/mL
[43]
  Neutralization IC50, H3-WI05: 1.19 µg/mL
[27]
  Neutralization IC50, H7-NLD03: 1.16 µg/mL
[28]
  Neutralization IC50, H3-HK68: 0.65 µg/mL
[29]
  Neutralization IC50, H1-FM47: 0.44 µg/mL
[30]
  Neutralization IC50, H6-HK97: 0.26 µg/mL
[31]
  Neutralization IC50, H2-MO06: 0.65 µg/mL
[32]
  Neutralization IC50, H1-Kaw86: 0.35 µg/mL
[33]
  Neutralization IC50, H1-Ncal99: 0.67 µg/mL
[34]
  Neutralization IC50, H7-BC04: 0.86 µg/mL
[35]
  Neutralization IC50, H6-AB85: 0.26 µg/mL
[44]
  Neutralization IC50, H3-Pa99: 4.36 µg/mL
[36]
  Neutralization IC50, H3-VC11: 1.15 µg/mL
[37]
  Neutralization IC50, H7-ANU13: 2.12 µg/mL
[38]
  Neutralization IC50, H5-HK03: 0.21 µg/mL
[39]
  Neutralization IC50, H1-NJ76: 0.11 µg/mL
[40]
  Neutralization IC50, H3-Perth09: 0.47 µg/mL
[41]
  Neutralization IC50, H2-JP57: 0.67 µg/mL
[42]
  Neutralization IC50, H3-Vic75: 0.44 µg/mL
HA of virus H1-BS10
  Neutralization IC50, H1-BS10: 1.93 µg/mL
